Earlier results on 1 substance are cited in article PMC10342495.

In general, Kd refers to the constant that tells how readily two partners part at equilibrium.

This series concerns the target IL-18 (Homo sapiens) (UniProt Q14116).

Sequence of IL-18BP (O95998 31-194): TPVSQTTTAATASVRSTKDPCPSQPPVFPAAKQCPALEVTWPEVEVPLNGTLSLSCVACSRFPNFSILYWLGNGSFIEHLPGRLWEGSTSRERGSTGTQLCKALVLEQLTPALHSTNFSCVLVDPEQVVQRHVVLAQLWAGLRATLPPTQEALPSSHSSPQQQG
Sequence of IL-18 (Homo sapiens) (Q14116 37-193): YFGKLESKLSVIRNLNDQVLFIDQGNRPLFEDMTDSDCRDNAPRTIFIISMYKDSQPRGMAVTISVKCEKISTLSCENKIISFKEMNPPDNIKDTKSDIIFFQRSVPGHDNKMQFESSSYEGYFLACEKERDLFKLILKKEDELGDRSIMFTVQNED

Turning to IL-18BP (from UniProt O95998), the Kd was 0.4 nM.
